According to publication PMC5374406, “The Phosphorylation of PDX-1 by Protein Kinase CK2 Is Crucial for Its Stability” (Pharmaceuticals, 2016):
Values belong to the molecule of their own block, whether it stands above or below them.

How the values were obtained:
PCIF1 (human; SPOP) = PCIF1 (human; SPOP) (UniProt O43791); experiment: GST pull-down, 35S autoradiography; details: sites T231,S232
PCIF1 (endogenous, MIN6) = PCIF1 (endogenous, MIN6) (UniProt Q6ZWS8); experiment: Duolink proximity ligation assay; details: reference: DMSO, sites T231,S232
[1] = target: T1, GST-PDX-1 T231D/S232E (CK2-phosphomimicking mutant) (mouse, UniProt P52946 1-284, T231D | S232E); experiment: pull-down; 10 ug purified GST-tagged PDX-1 immobilised on GSH-sepharose in PBS-T (PBS pH 7.4, 1% Tween 20), incubated 2 h at 4 °C with 7.5 uL in vitro translated [35S]-methionine labeled PCIF1; SDS-PAGE, Coomassie and autoradiography; details: one partner purified
T1 construct: 'Full-length mouse PDX-1' is said of the FLAG construct; also called D/E mutant; source: bacterial expression vector pGEX-4T-1, purified
T1 sequence (P52946 whole entry T231D/S232E): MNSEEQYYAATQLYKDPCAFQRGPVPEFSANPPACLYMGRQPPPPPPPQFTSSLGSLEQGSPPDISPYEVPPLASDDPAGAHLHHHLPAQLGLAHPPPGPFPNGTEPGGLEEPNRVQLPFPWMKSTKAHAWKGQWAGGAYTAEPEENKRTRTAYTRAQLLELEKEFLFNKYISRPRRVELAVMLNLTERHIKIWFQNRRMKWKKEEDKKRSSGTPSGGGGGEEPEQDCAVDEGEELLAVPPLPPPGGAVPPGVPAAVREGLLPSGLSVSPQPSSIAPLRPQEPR

Molecule: PDX-1 (from UniProt P52946) GST-PDX-1 T231D/S232E
fold change (PCIF1 (human; SPOP); reference: GST-PDX-1 T231A/S232A): 1.5
fold change (PCIF1 (human; SPOP); reference: GST-PDX-1 wild type): 1.5

B1: PCIF1 (human), in vitro translated and [35S]-methionine labeled, from pET28a-PCIF-1 (natural protein, UniProt O43791 1-374, looked up)
chain: MSRVPSPPPPAEMSSGPVAESWCYTQIKVVKFSYMWTINNFSFCREEMGEVIKSSTFSSGANDKLKWCLRVNPKGLDEESKDYLSLYLLLVSCPKSEVRAKFKFSILNAKGEETKAMESQRAYRFVQGKDWGFKKFIRRDFLLDEANGLLPDDKLTLFCEVSVVQDSVNISGQNTMNMVKVPECRLADELGGLWENSRFTDCCLCVAGQEFQAHKAILAARSPVFSAMFEHEMEESKKNRVEINDVEPEVFKEMMCFIYTGKAPNLDKMADDLLAAADKYALERLKVMCEDALCSNLSVENAAEILILADLHSADQLKTQAVDFINYHASDVLETSGWKSMVVSHPHLVAEAYRSLASAQCPFLGPPRKRLKQS
modifications: [35S]-methionine labeled
notes: PCIF1 / SPOP, human cDNA cloned into the BamH1/Xho1 sites of pET28a; wild-type form; The tags are inferred from the vector and cloning sites; also called SPOP; source: in vitro translated (Promega) from pET28a-PCIF-1
fold binding against wild-type or the AA mutant [1]: 1.5 fold

Continued, values first:

percent of reference (PCIF1 (endogenous, MIN6); 5 mM glucose): weaker; reference 100
Molecule: PDX-1 (from UniProt P52946) 10 µM CX-4945, 5 mM glucose

percent of reference (PCIF1 (endogenous, MIN6); 25 mM glucose): weaker; reference 100
Molecule: PDX-1 (from UniProt P52946) 10 µM CX-4945, 25 mM glucose
